Legend:
[1] = target: HL-Munc18c (mouse) (UniProt Q60770); assay: BLI; HL-Munc18c immobilised on Ni-NTA biosensors; de-tagged Sx4 constructs 25–400 nM in solution; BLItz; 1:1 fit
[2] = target: Alexa488-labeled VAMP2 E78C (GST-cleaved) (rat) (UniProt P63045); assay: fluorescence polarisation; SNARE complex formation by fluorescence anisotropy, all in solution: 700 nM SNAP23, 100 nM Alexa488-labeled VAMP2, 700 nM Sx4 variant, no Munc18c; 25°C; 25 mM HEPES pH 8.0, 200 mM NaCl, 1 mM TCEP, 2% glycerol
[3] = target: Alexa488-labeled VAMP2 E78C (GST-cleaved) (rat) (UniProt P63045); assay: fluorescence polarisation; SNARE complex formation by fluorescence anisotropy, all in solution: 700 nM SNAP23, 100 nM Alexa488-labeled VAMP2, 700 nM Sx4 variant, in the presence of 500 nM HMunc18c; 25°C; 25 mM HEPES pH 8.0, 200 mM NaCl, 1 mM TCEP, 2% glycerol

Chain of HL-Munc18c (mouse) (Q60770 whole entry): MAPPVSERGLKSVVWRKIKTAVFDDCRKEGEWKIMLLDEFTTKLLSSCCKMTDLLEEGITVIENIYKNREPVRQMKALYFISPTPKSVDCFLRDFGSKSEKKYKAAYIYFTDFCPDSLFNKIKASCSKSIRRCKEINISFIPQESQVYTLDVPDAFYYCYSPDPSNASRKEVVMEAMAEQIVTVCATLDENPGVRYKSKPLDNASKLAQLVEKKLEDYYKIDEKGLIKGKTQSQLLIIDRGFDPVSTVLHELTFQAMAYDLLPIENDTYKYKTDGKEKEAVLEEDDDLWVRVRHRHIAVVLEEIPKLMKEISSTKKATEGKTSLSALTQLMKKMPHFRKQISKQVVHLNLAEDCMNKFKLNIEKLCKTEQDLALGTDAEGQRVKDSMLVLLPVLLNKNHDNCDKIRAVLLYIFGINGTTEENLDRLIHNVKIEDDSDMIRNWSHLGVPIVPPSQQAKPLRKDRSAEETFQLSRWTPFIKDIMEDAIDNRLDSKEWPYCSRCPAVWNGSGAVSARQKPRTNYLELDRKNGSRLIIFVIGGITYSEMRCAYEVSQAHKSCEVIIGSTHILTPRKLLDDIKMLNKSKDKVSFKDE
Chain of Alexa488-labeled VAMP2 E78C (GST-cleaved) (rat) (P63045 1-96 E78C): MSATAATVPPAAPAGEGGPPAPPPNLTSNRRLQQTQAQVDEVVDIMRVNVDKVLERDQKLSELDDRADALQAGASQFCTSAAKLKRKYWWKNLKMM

Substance | Kd [1] [µM] | koff [1] [s⁻¹] | kon [1] [M⁻¹ s⁻¹] | kobs of SNARE complex formation with m13 [2] [s⁻¹] | kobs of SNARE complex formation with m13 [3] [s⁻¹]
Sx4_(1-275) (de-tagged) (from UniProt Q08850 1-275) (domain or fragment) | 0.072 | 0.022 | 300000 | – | –
Sx4_(1-275)-T4L (de-tagged) (from UniProt Q08850 1-275; P00720 1-164) | 0.031 | 0.009 | 290000 | – | –
Sx4_(30-275)-His (from UniProt Q08850 30-275) (domain or fragment) | – | – | – | 0.00049 | 0.00048
Sx4_(30-275)-T4L-His (from UniProt Q08850 30-275; P00720 1-164) | – | – | – | 0.00048 | 0.0005

— paper PMC5571939
